Here are results for 26 molecules from patent US20240174750A1 (VIRTUOSO BINCO, published 2024).

B1: hu.18B9.3i (antibody, V domains shown)
VH: EVQLVESGGGLVQPGGSLRLSCAASGFSFNSGYMSWVRQAPGKGLEWIASIYAGSSGKTYYADWAKGRFTISKTSSKTTVYLQMNSLRAEDTAVYYCARDSGGTYYTDYLYLWGQGTLVTVSS
VL: DIQMTQSPSSLSASVGDRVTITCRASEGISSYLSWYQQKPGKAPKLLIYKASTLTSGVPSRFSGSGSGTDFTLTISSLQPEDFATYYCQSTYGSSGSSGYGAAFGGGTKVEIK
notes: Humanised 18B9, parent of the alanine scan; also called hu.18B9.3i antibody
B2: hu.18B9.3i LC_G93A (antibody, name in Kabat numbering, V domains shown)
VH: B1 VH
VL: B1 VL with G93A
notes: Alanine scan variant of hu.18B9.3i; Kabat numbering
B3: hu.18B9.3i HC_T100b_A (antibody, V domains shown)
VH: B1 VH with T107A
VL: B1 VL
notes: as for B2
B4: hu.18B9.3i LC_S95b_A (antibody, V domains shown)
VH: B1 VH
VL: B1 VL with S97A
notes: as for B2
B5: hu.18B9.3i LC_G95f_A (antibody, V domains shown)
VH: B1 VH
VL: B1 VL with G101A
notes: as for B2
B6: hu.18B9.3i LC_Y95e_A (antibody, V domains shown)
VH: B1 VH
VL: B1 VL with Y100A
notes: as for B2
B7: hu.18B9.3i HC_Y100a_A (antibody, V domains shown)
VH: B1 VH with Y106A
VL: B1 VL
notes: as for B2
B8: hu.18B9.3i LC_Y92A (antibody, name in Kabat numbering, V domains shown)
VH: B1 VH
VL: B1 VL with Y92A
notes: as for B2
B9: hu.18B9.3i HC_L102A (antibody, name in Kabat numbering, V domains shown)
VH: B1 VH with L112A
VL: B1 VL
notes: as for B2
B10: hu.18B9.3i LC_T91A (antibody, name in Kabat numbering, V domains shown)
VH: B1 VH
VL: B1 VL with T91A
notes: as for B2
B11: hu.18B9.3i LC_S94A (antibody, name in Kabat numbering, V domains shown)
VH: B1 VH
VL: B1 VL with S94A
notes: as for B2
B12: hu.18B9.3i LC_S95A (antibody, name in Kabat numbering, V domains shown)
VH: B1 VH
VL: B1 VL with S95A
notes: as for B2
B13: hu.18B9.3i LC_S95c_A (antibody, V domains shown)
VH: B1 VH
VL: B1 VL with S98A
notes: as for B2
B14: hu.18B9.3i LC_S90A (antibody, name in Kabat numbering, V domains shown)
VH: B1 VH
VL: B1 VL with S90A
notes: as for B2
B15: hu.18B9.3i LC_Q89A (antibody, name in Kabat numbering, V domains shown)
VH: B1 VH
VL: B1 VL with Q89A
notes: as for B2
B16: hu.18B9.3i HC_L100e_A (antibody, V domains shown)
VH: B1 VH with L110A
VL: B1 VL
notes: as for B2
B17: hu.18B9.3i HC_T99A (antibody, name in Kabat numbering, V domains shown)
VH: B1 VH with T104A
VL: B1 VL
notes: as for B2
B18: hu.18B9.3i LC_G95d_A (antibody, V domains shown)
VH: B1 VH
VL: B1 VL with G99A
notes: as for B2
B19: hu.18B9.3i HC_S96A (antibody, name in Kabat numbering, V domains shown)
VH: B1 VH with S101A
VL: B1 VL
notes: as for B2
B20: hu.18B9.3i HC_Y100A (antibody, name in Kabat numbering, V domains shown)
VH: B1 VH with Y105A
VL: B1 VL
notes: as for B2
B21: hu.18B9.3i LC_G95a_A (antibody, V domains shown)
VH: B1 VH
VL: B1 VL with G96A
notes: as for B2
B22: R.1B11 (antibody, human IgG1, kappa, V domains shown)
VH: QSLEESGGRLVTPGTPLTLTCTASGFSLNSYHMSWVRQAPGEGLEWIGIIYADTGNADYASWTKGRFTISKASTTVELRITSPTSEDTATYFCARGPTNTYPTYFALWGPGTLVTVSS
VL: AFELTQTPSSVEAAVGGTVTIKCQASQSITTYLAWYQQKPGQPPKLLIYGASNLESGVPSRFKGSRSGTEYTLTISDLESADAATYYCQSYYAISKSAFGGGTEVVVKR
notes: Chimeric: rabbit variable domains, human IgG1 and human kappa constant regions
B23: R.19H7 (antibody, human IgG1, kappa, V domains shown)
VH: QEQLKESGGGLVTPGGTLTLTCTASGFTISSYHMCWVRQAPGKGLEWIGCIYPNNDFTWYATWAKGRFTISKTSSTTVDLRMTTPTTEETATYFCARASGNAYNLLDLWGQGTLVTVSS
VL: AIVMTQTPASVSVAVGGSVTINCQSSESVYRDNCLGWFQQKPGQPPKLLIYRASTLASGVPSRFKGSGSGTQFTLTISDVVSDDAATYYCAGYKSTITDGTAFGGGTEVVVKR
notes: as for B22
B24: R.20H1 (antibody, human IgG1, kappa, V domains shown)
VH: QEQLVESGGGLVKPGASLTLTCKASGFSFSSGYYMCWVRQAPGKGLEWIGCIYVRSDSTYYASWAKGRFTISKASSTTVTLQMTSLTAADTATYFCARGVTGDSYRFNFWGPGTLVTVSS
VL: DVVMTQTPASVEAAVGGTVTIKCQASQSISNELSWYQQKSGQPPKLLIYRASTLESGVPSRFKGSGSGTEFTLTISDLESADAATYYCQSTYYGTSYGNAFGGGTEVVVKR
notes: as for B22
B25: M.20B10E9 (antibody, human IgG1, kappa, V domains shown)
VH: EVQLQQSGAELVRPGASVKLSCTASGFNIEDTYMHWVKQRPEQGLEWIGRIDPANGKTKSDPKFQGKATITTDTSSNTAYLQLSSLTSEDTAVYYCAKGDGYYVGGLDYWGQGTTLTVSS
VL: DIQMNQSPSSLSASLGDTITITCHASQNIHVWLSWYQQKPGNIPKLLIYKASNLHTGVPSRFSGSGSGTGFTLTISSLQPEDIATYYCQQGQSYPYTFGGGTKLEIKR
notes: Chimeric: mouse variable domains, human IgG1 and human kappa constant regions
B26: M.30A5C6 (antibody, human IgG1, kappa, V domains shown)
VH: B25 VH with R13K, K57N, S60Y, I70V, T72A, Y95C, K98R, Y102H, D108N, T115S
VL: B25 VL with H30N, S93N
notes: as for B25

Where a chain is given by its changes, count along the chain named. Where only a bound is given, the exact number is not on record here.

In the first test the target is T1, extracellular domain (ECD) of human CD47 (19aa-139aa) with C-terminal 6xHis tag (human, UniProt Q08722 19-139).
T1 construct: also called recombinant CD47; recombinant human CD47
In words: ELISA, recombinant human CD47; EC50 as grade, legend the 11th table, row 38. On the technique in general: An ELISA detects its analyte on a solid surface through an enzyme-linked reagent.
As a reminder, the EC50 is the concentration giving half of the maximal effect. As for B1, the EC50 fell in the range of 0.01 to 0.5 nM.

Take B2: the EC50 was 0.01 to 0.5 nM.

For the molecule B3, the EC50 fell in the range of 0.01 to 0.5 nM.

For B4, the concentration for a half-maximal effect (EC50) fell in the range of 0.01 to 0.5 nM.

Regarding B5, the EC50 fell in the range of 0.01 to 0.5 nM.

Turning to B6, the EC50 lay in the range of 0.01 to 0.5 nM.

On to B7, for which the EC50 is 0.01 to 0.5 nM.

For the molecule B8, the concentration giving a half-maximal response (EC50) lay within 0.01 to 0.5 nM.

For the molecule B9, the EC50 was 0.01 to 0.5 nM.

As for B10, the EC50 fell in the range of 0.01 to 0.5 nM.

With B11, the EC50 lay within 0.01 to 0.5 nM.

Regarding B12, the EC50 is 0.01 to 0.5 nM.

Regarding B13, the EC50 is 0.01 to 0.5 nM.

On to B14, for which the EC50 was in the range of 0.01 to 0.5 nM.

As to B15, the EC50 fell in the range of 0.5 to 5 nM.

Take B16: the EC50 is over 5 nM.

For the molecule B17, the EC50 fell in the range of 0.01 to 0.5 nM.

With B18, the EC50 is 0.01 to 0.5 nM.

For B19, the EC50 was in the range of 0.5 to 5 nM.

For B20, the 50% effective concentration (EC50) is 0.01 to 0.5 nM.

As for B21, the EC50 was in the range of 0.01 to 0.5 nM.

For the next test, the target named is T2, CD47 on the surface of CD47+ cells (human, UniProt Q08722 19-323).
T2 construct: whole, on cells; also called CD47+ cell lines; CD47 on Raji cells, HCT-15 cells, human red blood cells (RBCs), human platelets
In words: flow cytometry, competition with SIRPA-mIgG2a on CD47+ tumor cells; IC50 as grade, legend the 8th table, row 26. In general terms: In flow cytometry, cells or beads pass a laser one at a time.
Method: Tumor cells were harvested, centrifuged, and then resuspended in FACS buffer (PBS plus 2% FBS) at a concentration of 2×10⁶ cells/mL. 100 μL of the cell suspension was dispensed into each well of a 96-well plate. The plate was centrifuged for 5 min and 300×g, and the supernatants were discarded. […] After washing twice with FACS buffer, the plates were resuspended with 300 μL FACS buffer and analyzed by flow cytometry.
For orientation: IC50 means the concentration that gives 50% inhibition. High values mean a need for much substance, low ones inhibition by little substance. In turn, B22 registered an IC50 of 0.1 to 1 nM.

B23 displayed an IC50 of 1 to 5 nM.

On to B24, for which the IC50 was 0.1 to 1 nM.

With B25, the IC50 was in the range of 0.1 to 1 nM.

Take B26: the IC50 fell in the range of 0.1 to 1 nM.

The next test concerns the target T2, CD47 on the surface of CD47+ cells. In words: flow cytometry on CD47+ cell lines; EC50 as grade, legend the 7th table, row 26.
Method: Antibody binding to CD47+ cell lines was quantified by flow cytometry. Harvested cells were centrifuged at 2000 rpm for 5 min, resuspended in 10-15 mL ice-cold culture medium, and then counted. Cells were resuspended in blocking buffer (PBS plus 2% FBS) at a concentration of 3×10⁶ cells/mL. 100 μL of the cell suspension was dispensed into each well of a 96-well plate. Purified antibodies were diluted to the desired concentrations with blocking buffer and 100 μL of diluted antibodies were added to the well and incubated for 1 hour at 4° C. The cells were then washed 3 times with PBS plus 2% FBS. […] The cells were then washed 3 times with 200 μL PBS by centrifuging at 2000 rpm for 5 min. After the last wash, the cells were resuspended in 300 μL cold PBS and analyzed on a FACSVerse™ (BD Biosciences) flow cytometer.
B22 showed an EC50 of 0.1 to 0.5 nM.

In the case of B23, the EC50 lay within 0.1 to 0.5 nM.

In the case of B24, the concentration for a half-maximal effect (EC50) lay in the range of 0.1 to 0.5 nM.

Molecule B25 came in with an EC50 of 0.1 to 0.5 nM.

In turn, B26 gave an EC50 of 0.1 to 0.5 nM.

Another test deals with T1, extracellular domain (ECD) of human …. The experiment in a line: ELISA, coated recombinant CD47; EC50 as grade, legend the 6th table, row 26.
Method: A 96-well plate was coated overnight at 4° C. with 1 μg/ml recombinant CD47. After washing 3 times, the plate was blocked with 300 μL 1% BSA in PBST at 37° C. for 1 hour. Serially diluted antibodies were added and incubated at 37° C. for 1 hour. The plate was then washed 4 times with PBST and incubated with 1:5000 diluted 2nd antibody (Sigma, Cat #A0293) at 37° C. for 1 hour.
Consider B22, for which the EC50 was 0.01 to 0.1 nM.

As for B23, the EC50 was in the range of 0.1 to 0.5 nM.

On to B24, for which the EC50 was 0.1 to 0.5 nM.

For B25, the EC50 lay within 0.01 to 0.1 nM.

On to B26, for which the EC50 was in the range of 0.01 to 0.1 nM.
